Assay results as given in paper PMC4976051 (Journal of molecular biology, 2016).

Target: T1, E. coli RecB (E. coli, UniProt P08394 1-1180)
T1 sequence (looked up): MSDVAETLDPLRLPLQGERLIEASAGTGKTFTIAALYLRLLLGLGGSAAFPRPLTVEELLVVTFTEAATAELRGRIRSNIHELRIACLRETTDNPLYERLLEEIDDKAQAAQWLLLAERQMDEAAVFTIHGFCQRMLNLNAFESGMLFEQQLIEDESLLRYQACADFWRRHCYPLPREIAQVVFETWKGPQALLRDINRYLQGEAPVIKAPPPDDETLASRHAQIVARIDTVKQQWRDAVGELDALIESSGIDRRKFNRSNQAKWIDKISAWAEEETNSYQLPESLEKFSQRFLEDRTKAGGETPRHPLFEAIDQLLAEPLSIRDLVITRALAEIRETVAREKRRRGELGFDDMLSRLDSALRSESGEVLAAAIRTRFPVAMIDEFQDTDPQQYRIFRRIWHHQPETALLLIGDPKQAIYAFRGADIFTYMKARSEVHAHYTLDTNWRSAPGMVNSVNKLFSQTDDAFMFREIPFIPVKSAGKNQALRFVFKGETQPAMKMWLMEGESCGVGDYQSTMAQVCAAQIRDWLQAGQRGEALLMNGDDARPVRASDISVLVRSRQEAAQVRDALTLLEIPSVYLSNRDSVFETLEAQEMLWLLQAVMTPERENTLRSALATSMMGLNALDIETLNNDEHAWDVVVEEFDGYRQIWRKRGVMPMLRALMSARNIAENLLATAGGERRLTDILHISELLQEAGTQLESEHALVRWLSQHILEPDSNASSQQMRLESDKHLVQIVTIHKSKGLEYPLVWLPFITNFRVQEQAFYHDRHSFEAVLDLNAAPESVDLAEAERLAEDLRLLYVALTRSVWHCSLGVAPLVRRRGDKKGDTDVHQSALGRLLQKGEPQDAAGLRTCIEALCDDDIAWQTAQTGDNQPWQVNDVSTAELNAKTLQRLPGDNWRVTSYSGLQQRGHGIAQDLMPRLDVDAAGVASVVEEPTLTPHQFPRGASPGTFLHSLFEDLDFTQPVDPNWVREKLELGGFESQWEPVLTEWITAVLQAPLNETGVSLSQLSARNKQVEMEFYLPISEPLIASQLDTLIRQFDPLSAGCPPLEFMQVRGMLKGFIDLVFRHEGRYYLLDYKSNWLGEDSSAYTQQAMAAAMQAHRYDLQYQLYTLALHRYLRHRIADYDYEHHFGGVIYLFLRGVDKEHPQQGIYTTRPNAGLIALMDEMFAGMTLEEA
Test: reconstitution from purified subunits

- binding result: binds
B1: E. coli RecC (natural protein, UniProt P07648 1-1122, looked up)
chain: MLRVYHSNRLDVLEALMEFIVERERLDDPFEPEMILVQSTGMAQWLQMTLSQKFGIAANIDFPLPASFIWDMFVRVLPEIPKESAFNKQSMSWKLMTLLPQLLEREDFTLLRHYLTDDSDKRKLFQLSSKAADLFDQYLVYRPDWLAQWETGHLVEGLGEAQAWQAPLWKALVEYTHQLGQPRWHRANLYQRFIETLESATTCPPGLPSRVFICGISALPPVYLQALQALGKHIEIHLLFTNPCRYYWGDIKDPAYLAKLLTRQRRHSFEDRELPLFRDSENAGQLFNSDGEQDVGNPLLASWGKLGRDYIYLLSDLESSQELDAFVDVTPDNLLHNIQSDILELENRAVAGVNIEEFSRSDNKRPLDPLDSSITFHVCHSPQREVEVLHDRLLAMLEEDPTLTPRDIIVMVADIDSYSPFIQAVFGSAPADRYLPYAISDRRARQSHPVLEAFISLLSLPDSRFVSEDVLALLDVPVLAARFDITEEGLRYLRQWVNESGIRWGIDDDNVRELELPATGQHTWRFGLTRMLLGYAMESAQGEWQSVLPYDESSGLIAELVGHLASLLMQLNIWRRGLAQERPLEEWLPVCRDMLNAFFLPDAETEAAMTLIEQQWQAIIAEGLGAQYGDAVPLSLLRDELAQRLDQERISQRFLAGPVNICTLMPMRSIPFKVVCLLGMNDGVYPRQLAPLGFDLMSQKPKRGDRSRRDDDRYLFLEALISAQQKLYISYIGRSIQDNSERFPSVLVQELIDYIGQSHYLPGDEALNCDESEARVKAHLTCLHTRMPFDPQNYQPGERQSYAREWLPAASQAGKAHSEFVQPLPFTLPETVPLETLQRFWAHPVRAFFQMRLQVNFRTEDSEIPDTEPFILEGLSRYQINQQLLNALVEQDDAERLFRRFRAAGDLPYGAFGEIFWETQCQEMQQLADRVIACRQPGQSMEIDLACNGVQITGWLPQVQPDGLLRWRPSLLSVAQGMQLWLEHLVYCASGGNGESRLFLRKDGEWRFPPLAAEQALHYLSQLIEGYREGMSAPLLVLPESGGAWLKTCYDAQNDAMLDDDSTLQKARTKFLQAYEGNMMVRGEGDDIWYQRLWRQLTPETMEAIVEQSQRFLLPLFRFNQS
